# Data published in patent US20220168400A1, “USE OF A MANGANESE SUPEROXIDE DISMUTASE WITH HIGH STABILITY IN THE PREVENTION OR TREATMENT OF CEREBRAL STROKE” (CARRY HEALTH BIOPHARMACEUTICALS (HANGZHOU) CO., LTD., priority 2019, published 2022).
# “And” between values parts separate entries of the source, which are not always exact repeats. Equal entries are not always repeated.
# How the values were obtained:
# [1] = tested on: middle cerebral artery occlusion (MCAO) model in C57BL/6J mice; assay: Cerebral infarction area in middle cerebral artery occlusion (MCAO) model (TTC staining); format: in vivo; details: vs model group
# Description: Male C57BL/6J wild-type mice were all purchased from Guangdong Experimental Animal Center. The male C57BL/6J wild-type mice were 8 weeks old, when they were subjected to establish middle cerebral artery occlusion (MCAO) model.
# (3) MS-SOD1 group (10 mice): mice aged 4 weeks were fed with drinking water supplemented with MS-SOD for 4 weeks (3 U/day/g body weight), and then subjected to establish middle cerebral artery occlusion model;
# (4) MS-SOD2 group (10 mice): after establishing middle cerebral artery occlusion model, the mice were intragastrically administered with MS-SOD 600 U once when they waked up from the anesthesia. […]
# At 24 hours after MCAO model establishment, the head was cut off and the brain was taken after anesthesia. […] The infarction area of each territory was measured by ImageJ software. […] The total infarction area was calculated by integrating the infarction territories between sections.
# Finally, the differences of different intervention conditions and MCAO model establishment on the degree of cerebral injury and neurological severity in mice were analyzed. All data were expressed as mean ±standard deviation. […]
# [2] = tested on: cerebral hemorrhage model in wild-type AB strain zebrafish; assay: Blood flow volume in simvastatin-induced cerebral hemorrhage model in zebrafish; format: in vivo; details: for Blood flow volume (mean ± SE): n = 10, model control 0.13, normal control 0.30 nL/s
# Protocol: 3 dpf wild-type AB strain zebrafish was administered with an aqueous simvastatin solution (0.5 μM) for 18 hours to establish a cerebral hemorrhage model in zebrafish. 180 wild-type AB strain zebrafishes at 3 days post fertilization (3 dpf) were randomly selected and put in a six-well plate, 30 per well (experiment group). Aqueous MS-SOD solutions with concentrations of 222, 667 and 2000 μg/mL were administrated respectively, the concentration of positive control drug icariin was 30 μM, and the normal control group (the zebrafishes were treated with water for fish) and the model control group were set at the same time. The volume of each well was 3 mL. After treatment of zebrafishes with samples for 4 hours, except for the normal control group, the other experiment groups were treated with simvastatin for 18 hours to establish the cerebral hemorrhage model. After the treatment, 10 zebrafishes from each group were randomly selected and placed in a heart rate and blood flow analysis system to record blood flow video of zebrafish, and analyze the blood flow volume (O) of zebrafish. The statistical significance of the blood flow volume was used to evaluate the improvement effect of MS-SOD on blood flow volume of cerebral hemorrhage. The formula of the improvement effect of MS-SOD on blood flow volume of cerebral hemorrhage was as follows: [formula] Statistical analysis was performed using variance analysis and Dunnett's T-test, and p<0.05 indicated a significant difference. 4.
molecule,measurement,setting,value
"MS-SOD: manganese superoxide dismutase with high stability, gene from Thermus thermophilus HB27 expressed in E. coli; amino acid sequence SEQ ID NO: 4 (protein, Amino acid sequence for MS-SOD) MPYPFKLPDLGYPYEALEPHIDAKTMEIHHQKHHGAYVTNLNAALEKYPYLHGVEVEVLLRHLAALPQDIQTAVRNNGGGHLNHSLFWRLLTPGGAKEPVGELKKAIDEQFGGFQALKEKLTQAAMGRFGSGWAWLVKDPFGKLHVLSTPNQDNPVMEGFTPIVGIDVWEHAYYLKYQNRRADYLQAIWNVLNWDVAEEFFKKA",area of cerebral injury,"[1]; MS-SOD1 group: 3 U/day/g body weight for 4 weeks before MCAO, P=0",significantly reduced
same,area of cerebral injury,"[1]; MS-SOD2 group: 600 U intragastrically once after MCAO, P=0.015",significantly reduced
same,Blood flow volume improvement effect,[2]; MS-SOD 222 μg/mL,59%
same,Blood flow volume (mean ± SE),[2]; MS-SOD 222 μg/mL,0.23 nL/s and 0.23 ± 0.014 nL/s
same,Blood flow volume improvement effect,[2]; MS-SOD 667 μg/mL,71%
same,Blood flow volume (mean ± SE),[2]; MS-SOD 667 μg/mL,0.25 nL/s and 0.25 ± 0.024 nL/s
same,Blood flow volume improvement effect,[2]; MS-SOD 2000 μg/mL,71%
same,Blood flow volume (mean ± SE),[2]; MS-SOD 2000 μg/mL,0.25 nL/s and 0.25 ± 0.019 nL/s
